Test results as given in patent publication US20040014134.

Biological target: Fusion protein B (variant 2; rsGFP - cleavage site segment with TEV protease cleavage site - DsRed)

B1: TEV protease (protease from the tobacco etch virus) (protein)
chain: GESLFKGPRDYNPISSTICHLTNESDGHTTSLYGIGFGPFIITNKHLFRRNNGTLLVQSLHGVFKVKNTTTLQQHLIDGRDMIIIRMPKDFPPFPQKLKFREPQREERICLVTTNFQTKSMSSMVSDTSCTFPSSDGIFWKHWIQTKDGQCGSPLVSTRDGFIVGIHSASNFTNTNNYFTSVPKNFMELLTNQEAQQWVSGWRLNADSVLWGGHKVFMSKPEEPFQPVKEATQLMNELVYSQ
In the case of B1, the “two-photon cross-correlation amplitude (dual-colour FCS protease cleavage assay)” value is reported as “The cleavage of the bond and the consequent reduction of the proportion of double fluorescing molecules in the measurement solution cause the decrease of the cross-correlation amplitude”.
